According to patent US20200024338A1 (Stanford University, published 2020):

Columns and labels:
[1] = biological target: T1, Human RNF43 Extracellular Domain (ECD) (amino acids 24-197) (human, UniProt Q68DV7 24-197, site-specifically biotinylated by BirA ligase at the C-terminal biotin-acceptor peptide); assay: yeast surface display titration: scFv-displaying yeast with increasing RNF43, flow cytometry, normalized MFI
T1 construct: range 24-197; The methods say that RNF43 means the ECD only; also called RNF43 ECD; biotinylated RNF43
T1 sequence: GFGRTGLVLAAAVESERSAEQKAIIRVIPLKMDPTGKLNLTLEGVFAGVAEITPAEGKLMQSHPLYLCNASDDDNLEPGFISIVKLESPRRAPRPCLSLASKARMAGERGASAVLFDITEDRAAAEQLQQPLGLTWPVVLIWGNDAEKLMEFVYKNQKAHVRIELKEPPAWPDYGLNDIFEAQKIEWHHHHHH
Experimental: (§1) Plasmids from the final round of selection were isolated using the Zymoprep Yeast Plasmid Miniprep Kit (Zymo Research) and sequenced. These plasmids were electroporated into S. cerevisiae EBY100 yeast and recovered in SDCAA selection media, followed by induction in SGCAA induction media. The individual scFv-transformed yeast were incubated with increasing concentration of biotinylated RNF43/ZNRF3. These yeast were stained with SA-647 and Myc-488 and fluorescence was monitored by flow cytometry. The data were analyzed by GraphPad Prism 7 and the highest affinity clones were identified for subsequent experiments.

[2] = biological target: T2, Human ZNRF3 ECD (amino acids 56-219) (human, UniProt Q9ULT6 56-219, site-specifically biotinylated by BirA ligase at the C-terminal biotin-acceptor peptide); assay: yeast surface display titration: scFv-displaying yeast with increasing ZNRF3, flow cytometry, normalized MFI
T2 construct: range 56-219; The methods say that ZNRF3 means the ECD only; also called ZNR3 ECD; biotinylated ZNRF3
T2 sequence: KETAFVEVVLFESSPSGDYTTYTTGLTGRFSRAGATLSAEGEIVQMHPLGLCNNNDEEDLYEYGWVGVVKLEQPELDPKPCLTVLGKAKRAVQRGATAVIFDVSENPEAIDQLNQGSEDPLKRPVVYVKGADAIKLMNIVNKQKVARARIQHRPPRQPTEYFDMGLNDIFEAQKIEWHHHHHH
Experimental: as §1

B1: R5 scFv (scFv)
scFv: ASQITLKESGPTLVKPTQTLTLTCSFSGFSLSFSGVGVAWIRQPPGKALEWLALIYWDDDKRYSPSLKSRLTITKDTSKNQVVLTMTNMDPLDTATYYCAHREWKAFGAFDIWGQGTMVTVSSGILGSGGGGSGGGGSGGGGSQPVLTQSPSASGTPGQRVTISCSGSSSNIGSNTVNWYQQLPGTAPKLLIYSNNQRPSGVPDRFSGSKSVTSASLAISGLQSEDEAEYYCATWDDSLNGAVFGGGTQLTVLSGILG
EC50 [1]: 122 nM

B2: Z6 scFv (scFv)
scFv: ASQVQLVQSGAEVKNPGASVKVSCKASGYAFTSYGISWVRQAPGQGLEWMGWISAYTRNTNYAQKFQGRVTLTTDTSTSTAYMELRSLRSDDTAIYYCARDARYSLGVGAFDVWGQGTMVTVSSGILGSGGGGSGGGGSGGGGSETTLTQSPAFMSATPGDKVSISCKASRDIDDDLNWYQQKPGEAAISIIQEATTLVPGIPPRFSGSGYGTDFTLTINNIESEDAAYYFCLQHDDVPYTFGQGTKLEIKSGIL
EC50 [2]: 113 nM
